Laboratory results as given in publication PMC11330527, “Structure and dimerization properties of the plant-specific copper chaperone CCH” (Scientific Reports, 2024).

How the values were obtained:
[1] = target: the molecule itself; test: MST; only one copy preloaded with copper (CCH: labeled copy copper-loaded, unlabeled copper-free; CCHΔ: unlabeled copy copper-loaded, labeled copper-free); labeled chaperone 20 nM, unlabeled 0.4 to 6.25 µM; 300 mM NaCl, 50 mM HEPES, 0.05% Tween-20, pH 7.5; room temperature; one-site binding model; apparent KD; dimer to monomers
[2] = target: the molecule itself; test: MST; both copies in the apo (copper-free) state; Alexa Fluor 488-labeled chaperone 20 nM, unlabeled chaperone 4.6 to 400 nM; 300 mM NaCl, 50 mM HEPES, 0.05% Tween-20, pH 7.5, no DTT; room temperature; one-site binding model; apparent KD; dimer to monomers

Protein	Kd [1] [nM]	Kd [2] [nM]
copper chaperone CCH (full-length CCH) from Arabidopsis (natural protein, Arabidopsis thaliana, UniProt O82089 1-120, looked up, Alexa Fluor 488 NHS ester on amines (only the labeled copy in MST), Used copper-free (apo) or preloaded with Cu(I) from Cu(I)-(BCA)2; A TEV site follows the His-tag; Vector pETEV16b-CCH; also called apo-CCH; Cu(I)-CCH; source: E. coli, purified (IMAC, TEV digestion, SEC); not shown: 10xHis, N-terminal, cleaved) MAQTVVLKVGMSCQGCVGAVNRVLGKMEGVESFDIDIKEQKVTVKGNVEPEAVFQTVSKTGKKTSYWPVEAEAEPKAEADPKVETVTETKTEAETKTEAKVDAKADVEPKAAEAETKPSQ	78 ± 39	18 ± 6
CCHΔ, truncation mutant of CCH lacking the C-terminal extension (domain or fragment, Arabidopsis thaliana, UniProt O82089 1-70, looked up, also: Alexa Fluor 488 NHS ester on amines (labeled copy only), Used copper-free (apo) or preloaded with Cu(I) from Cu(I)-(BCA)2; A TEV site follows the His-tag; source: E. coli, purified (IMAC, TEV digestion, SEC); not shown: 10xHis, N-terminal, cleaved) MAQTVVLKVGMSCQGCVGAVNRVLGKMEGVESFDIDIKEQKVTVKGNVEPEAVFQTVSKTGKKTSYWPVE	169 ± 51	57 ± 9
